From the domain aggregation screens of Martell et al. (2025)

test: soluble fraction after stress (log2 fold change); higher = more stays soluble; pooled small domains, quantitative proteomics; settings: stress: pH 4
Procedure, shortened: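 Following acid stress at pH 4, the amount of each small protein domain still soluble was measured in pooled custom libraries by high-throughput quantitative proteomics. Its fold change, on a log2 scale, is higher when more of the domain stayed soluble. This fold change is taken as a measure of aggregation propensity.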

| Sequence | soluble fraction (log2) |
| --- | --- |
| HMAPGVHVEALLPYTAGSLVSQIREYGNVDAVEYRDTGILLQADVDERLAAQIMDQALEDPV | -1.03 |
| HMAPLADQIVDLLKEHDGFLPLHDNSSPEDIRATVGTSKKAFKQAIGGLFREKRIVIGPTGIRLIS | 0.146 |
| HMAPLATIHVSSLSQKPFYLYGTFEDRRGNHLFFLEQIMGENKSIPVAMPSSAINPKIHASLTPPKG | -0.0804 |
| HMAPLQDENGDLTFSYNGKTYTVNVNSEEDRNSFAEDFNKENGKKFSWFKERAGLQHYVFYDTEM | -0.918 |
| HMAPLVTLEADGNGAVKLSNLAGHSIREVAGALGGAGLSLIPVGSGTSWKQNPAPGTVLHSGDTVTVYF | 0.22 |
| HMAPPIQQQVESLMNSFAKIGVTVPMLESRLQHAMSAVTANELVMLRKIGASIRDGFATVAEQFPA | 0.0598 |
| HMAPPPPEGYIHRWIRESVMGFDDKKNLSARIREGFELVRAEEYPDYEAPTVMDGKHAGVIANGGLLLARF | -0.236 |
| HMAPQQARAAKTRVKLLDAAATVVRRDGIQAMTLARVAEEAGVSKGGLLHHFGSKEELVTGMLEQ | -0.402 |
| HMAPRASDALTERELDVLRVVADGASVAEAAEMLVVSRETVKKHLGNIYAKLGVHSKMQAVALLREEGV | -1.27 |
| HMAPRKNIRLLRAAQDKAAAEGDHETVDAIRGQIAALIETLPVQYREEYLLQEKGRENGLKLAIENAAK | -0.214 |
| HMAPSLQISLKQAIITAQQQHPGSKALNADFDGARGTPRYVIETLLPTGELRELTIDAQSGQVMEDHPDR | 0.198 |
| HMAPSPEGAAILRESVESVARDQVDRVALTMTARGYTTAEIAAALMVDRSTISRRLYAMRDRYHAQQDNAQ | -0.666 |
| HMAPSVNEVAWAQKIIDAHAEAAAAGKGLVVVDGKLIENLHVEEAKQLLSLSDAIAKNDASNG | -0.31 |
| HMAPTGTDRQTPHTRDELYLVLSGTGTFVNGDARHPFGPGDALFVPAGAEHRFEDFSDDFRTWVVFYGAEG | -0.734 |
| HMAPVVAILTRQLPLPQAQQLAGQTALVRVVKGGPGNEAELEFAGQNIQVKLPPGRQLTAGEMVTVAFALS | -0.0882 |
| HMAQASEPMLALIRLKWWEEQINSPVKGDSLPLLSQLNSHISAGYLSRSQVTSLIQRWQDYA | -1.18 |
| HMAQFNELLFELRQDRKMTQEDLAKVLFVTSGTISNYENGVHLPDIEKLISLADFFGVTTDYLLG | -0.726 |
| HMAQLKYEQIKSYLQAEAVKPESATRMPTVRELMRRFNVSLVTVNRALSELEHAKVIVRRQGAGIVAAQ | 0.0424 |
| HMAQLPADMSRVKSADVSDAQLREFVQKAQASGQTETQLFREFSRRGMPTNEINILRSRMVGLQNN | 0.0928 |
| HMAQLPPTATARATSDVSGLTASAALRTLLEQGFVPQIHGSGKVSRQHPPAGTLLEPGSTIQLFLEPS | ≥ 0.43 |
| HMAQLSDMLTYLRKRKGLSQQELANTLKISRSAIGMYETGKREPDLETLEVFADFYNVDMNTLTGKA | 0.192 |
| HMAQNILPGQKNAIKSLATSAGFSQQELDSYLSQNYGKTLNNLSQKEGASLISGLQDGSIKKP | 0.0359 |
| HMAQPIPSGSDIREAREAAGMNLRDFARMVGGGAIGTWSHYETGKPIRVKSISPEVWQRVRDFILQHGK | 0.036 |
| HMAQRAADEARTHEILGLLRQARAALDHGGTARAARLRASIAEKLPAAPALPAWFARQLEQVDSQLAELQD | -0.568 |
| HMAQRFDLGDKLNPQSSEFEYLGTSSRTGVSTYRYKNVPTQLFFGRQIGDIVVGVRRGMITLTIYNL | 0.146 |

| Sequence | soluble fraction (log2) |
| --- | --- |
| HMAQSTALVNLAQAEINKRGLTQTEVQARLSEEGINVNSISPAEYPKYQKQILSILDQMQKEKQLSKEV | 0.359 |
| HMAQVDAVQQVLQAFPALRSGQSQHLSQVVAALRQRGILTVGTKTTAWFAQWASVFQLLPLQVPNRIRYQS | 0.2 |
| HMARGRETILLVEDEPAVRGLVHATLRLHGYTVLEARHGIEALLTSTKFVGPIHLLLTDVVMPQMS | 0.265 |
| HMARHIHFEVHVQQAGRWSIHAQFGAGQREKAIEEAKKIEKTPGFDSVKVVKETYDSDLGNHQDTTIYRGP | 0.0508 |
| HMARKTIFHSLLGELEQRIGRLPAGTILPAEQALADEYGVSKPTLRRALAELAEHGLITKENGIGSVVI | ≥ 0.43 |
| HMARLAGVDLPREKRIEIGLTYIYGIGLARSQEILKKAGINPDIRVKDLTDEQEQAIRNAMDGYIVEGDL | -0.0746 |
| HMARLQEVVVRVPVEDGQTLAAIYREAEVIERADEGTGVLLTVRIPAPLLGRLRRLEGVHVQP | -0.348 |
| HMARRLELEDIPVDEVLFTASRNLVDAIEVMDPSRQAPMIQPWLKQALEWAVGALGFSKEDAVATLTSD | -0.264 |
| HMASAAHYEGVKTEGESDNDVITRVLTATGVTAEKDDIFVVKSLIADGKYSYTAYVYDGSVWAAMD | -0.541 |
| HMASALDVALNDFAEMRKKMRKPLTDRALALTLSELEKLAPGNDEKKIAILNQSIQRGWQGVFPLK | 0.0901 |
| HMASDEVPGAGFKWREDVLLRVMEANGIDKSNRDDFVRHAVNFDDDDNNYLKKAEIEAAAAAWVESQSPA | -0.239 |
| HMASDLPTVTIMGKTFYTYVAKKGESFFGIANRFGWDPELLVKTNRELETPLDKGALIYYPVPKKPK | -0.521 |
| HMASIATLTVKALGGASDVVIRDKDGRIIWADRLPAGQSHRVFGHAPFNVAASHASRVQLSLLGKDVGRV | -0.147 |
| HMASISDRIRLLRAESHMTQEEFGRIFGISKPTVSFYEHGKSVPNDQIKTAIARYFGVSVDYLLGVTD | -0.467 |
| HMASKTGTITATSLNVRSGAATTYSILGTLSNGKTVTIYEESNGWYKINYNGGYGWVSKTYVSTG | -0.105 |
| HMASLASVAYETLRQALDNFQYVPGDRFSESEVGQQLGMSRTPVREALVRLQREGYISVLPKMGWVVNQ | -0.953 |
| HMASMHDGVAARLRAMVFERELAPGEFIDERRLAQQWQISRTPLREALKVLAAEGLVELVPRRGARVV | -0.275 |
| HMASPKEALWRSLAEEPDTWWDNRERKSQPGANPRSPDFKHKESGEALWIESRDTPTWVLETL | -1.5 |
| HMASQEESVATYIQDYYRNPKTGESMVSDDMVEEFYKTHPEWEDQADGSKEGMEAVLDNFNEFFEINYG | -0.136 |
| HMASSRPLAEGDFVRLRAGGATGRIESIKGQKATVQMGGLKVHAPLRDLLPVAEPIKQVSTASNT | 0.203 |
| HMASVAKHIRRLRTERHMTQGDLAEKLFVTRQTVSAWETGKAQPDLETLERIAVVLGVEVTELIYGAP | -0.537 |
| HMASVVEQVQVSNDISLFRQQNSPYWQARFKVAGKWYTRTTKRTEQTQAAFRAAELRSEVQTKISQGIPLR | -0.00738 |
| HMATESYYVLKADVPAKTLVTQEMVEEIKVSKGGAPVNSIKIDNIKEKGVYTSIPLLKGDVLSASNTG | -0.358 |
| HMATKVSSGATVRDVADLLGLSSAELIKKLMMMGEMATLTQTLTDESIKSIADEYDRKIEIVSAAE | -1.22 |
| HMATNVLEISTRNKNILIQDSLNLVESFYSKSDNQYWYKLVFKTKDDLNKFLQEVSEDENTITYKTSSI | -0.194 |

| Sequence | soluble fraction (log2) |
| --- | --- |
| HMATPEINNLGRLRNAINQSNVNWHQIIKRLQNEYPNNWRQILIAIDRHDLLFRYDVENYIKYG | -0.855 |
| HMATPIAGTKYTLNNTPVYGTEKGPSIGKRSGIYYTWDATVRNGRIRMTNSPARVGVPWQVSFWVEVNKL | -0.195 |
| HMATPRLAIVPQSAAGRRLDAVLAELFPEYSRSRLSAWIKTGDVMVDGAAPRGRDPVRGGEEITLTAVQ | 0.113 |
| HMATPTEHQLQAQARAVVEKAERLLDRASADDREDIINLIEKITDALAAEDFTAVKAPLAELSDILFYLE | -0.27 |
| HMATPTMEDYIEVIYSLVKTKGYARSADIAEKLEVYPSTVTKMLKKLDAEGYIVYEKYRGIALTDIGKKMG | -0.189 |
| HMATSNGEFVIPDGGLQFEELERSLLMQALKKSGGSQTGAARLLGLSRDTLRYRLEKFGIDAAAVRE | -0.149 |
| HMATVTVPNLKGMTPSGAESALAELNLKGAVGDSVESNDVENGKVASQDQAAGSDAKEGDTITYHLSS | -0.103 |
| HMATYETEVISGVNLRSAPNTSASVYRLLSKGEDIHVIQKVNDYWLKVQTKDGKIGYISASSKYTNYIA | -0.132 |
| HMAVEETFTITWLDRDGTVLEVDENVLKGTMPSFDGHIPPHDGLEFKGWDPEVVPVEGDATYTATYKA | -0.454 |
| HMAVENTGLSKRELEILQMMARGMSNQEIGDALFISLSTVKTHVASIFSKLQAVRRTQAVGIAKSLKII | -0.367 |
| HMAVFSKKQIFDTAFALFESKGLEAITARNLGKALSSSPAPIYAHYSSITELKNELISVAKDR | -0.692 |
| HMAVGDMISKLRTAANMSQEQFAELFGVTRQSVQKWENSFSVPELEKLIKISKYFDVSLDALVLRSDARVT | -1.32 |
| HMAVLFFVKRGERILGPTRLADLFQHAASGRLRANDLVGESPKGPWLPARQLDELEDAWASSRDATEAAAA | -0.0753 |
| HMAVNQEFKNTINRIKYEYSLNQSQIADRLGVKKTYLSDMINGRVPYNETMNKKVNDVFPLPP | ≥ 0.43 |
| HMAVPTHVEFPVVGLQRSGITSLEQAIATVPGVSKAVVNVSDNRIFVDYDPTRSKVSDLLEVVRGAGFTP | -0.222 |
| HMAVQAESDIIKRAALLRNLGNTSMQLKNIDQAIDFYKQGIKLHPEDAELKYNLSQALRQKSQSNN | 0.186 |
| HMAVQEDAGLAREDLPPEVQGLLQEREAARAAKDWGKSDALRRQLQDLGYAIKDTAQGMEIKRT | 0.101 |
| HMAVRNTKQKQLVLSLLKNSGRPMTAGEIYRLAVQQYPNIAKSTVYRNLENLVSRGEVSQGMHQNGESFYS | ≥ 0.43 |
| HMAVSPEEQKKRIIELFRNRNEVSFKEIFDLPTKGHFVITLLAVLDLARQQIVIMEQLENEGIIKFTKGA | -0.232 |
| HMAVSSHAVKQRIRSLIQAEDPAAPLSDEALRLALSALGVDVSRRVIAKYRAELNIPSSSQRKK | 0.213 |
| HMAVSVPDVMGLTYEEAYNKITAEGLLVNRLESYTGLVEKGRVISQLPVGGEPAAKGSTVNVNVSL | -0.139 |
| HMAVTFPYTAYATDAVRLRERPSSSADVLAVIRKGDAVLVTGTDGNYAIVDYEGKRGYVVSSFIAT | -0.159 |
| HMAVWRIKVNYIPGYGVNIWSSYKNGHFTGKRAMHGETYEVLETKKDQDGNTWYKLDDHQWIEGRYAINAK | -0.88 |
| HMAYMETIERVEALAPGTKFNLKALFGTDWTQSRGTKLTLGKTFYEMVESGYVKTAKVLGKDSSNIMQYER | -0.0837 |
| HMAYSEEERNLIRSRLKDVAAALFKEKGIRDTNIDEIYTPVGISKTFFYSFFPSKAVLAIAIMK | -0.267 |
